In article PMC2275093:

T1: Cren7 (recombinant) (Sulfolobus solfataricus P2, UniProt Q97ZE3 1-60)
T1 sequence: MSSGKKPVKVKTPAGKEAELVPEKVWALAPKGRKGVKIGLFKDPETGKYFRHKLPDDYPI

B1: poly(GACT)15 60 nt ssDNA (ssDNA)
DNA: GACTGACTGACTGACTGACTGACTGACTGACTGACTGACTGACTGACTGACTGACTGACT
B2: 10-bp duplex (dsDNA)
DNA 1: GCGAATTCGC
DNA 2: GCGAATTCGC

How the values were obtained:
Cren7 (recombinant) [1] = target: T1, Cren7 (recombinant); experiment: EMSA
Cren7 (recombinant) [2] = target: T1, Cren7 (recombinant); experiment: NMR 1H-15N HSQC titration

| Binder | Kd (Cren7 (recombinant) [1]) [µM] | binding result (Cren7 (recombinant) [2]) |
| --- | --- | --- |
| B1 | ~2.5 |  |
| B2 |  | binds |
